What was measured:
[1] = molecular target: eIF4GII_(551–745)/eIF4E complex (human | murine) (UniProt O43432); assay: SEC-MALS
[2] = molecular target: eIF4GII_(551–745)/eIF4E complex (human | murine) (UniProt O43432); assay: ITC

Sequence of eIF4GII_(551–745)/eIF4E complex (human | murine) (O43432 551-745, chain 1 of 2): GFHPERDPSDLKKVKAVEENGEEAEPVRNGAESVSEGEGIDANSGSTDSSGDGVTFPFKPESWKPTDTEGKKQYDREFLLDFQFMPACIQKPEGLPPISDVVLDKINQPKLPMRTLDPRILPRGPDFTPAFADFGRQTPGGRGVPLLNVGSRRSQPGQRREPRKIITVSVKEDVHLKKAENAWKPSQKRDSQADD
Sequence of eIF4GII_(551–745)/eIF4E complex (human | murine) (P63073 whole entry, chain 2 of 2, further chain): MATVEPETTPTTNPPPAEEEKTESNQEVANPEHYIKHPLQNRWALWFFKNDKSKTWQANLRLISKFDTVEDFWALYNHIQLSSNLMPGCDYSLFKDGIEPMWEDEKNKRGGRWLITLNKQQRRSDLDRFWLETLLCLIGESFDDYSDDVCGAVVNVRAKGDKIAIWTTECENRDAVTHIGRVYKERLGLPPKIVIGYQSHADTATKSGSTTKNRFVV

FMDV leader proteinase, shortened form, sLb^proC51A (FMDV residues 29–195) (enzyme)
stoichiometry N [1]: 1
Kd [2]: 33 nM
